The record followed here is patent publication US20070148773.

Experiment in all cases: cell_activity
Data set [1] deals with Int-h (mutant lambda integrase) (Bacteriophage lambda) (UniProt P03700). The conditions noted are these: HeLa 48 h.
Data set [2] addresses Int-h/218 (double mutant lambda integrase) (Bacteriophage lambda) (UniProt P03700). The conditions noted are these: HeLa 48 h.
Data set [3] has as its target T1, Int (wild-type lambda integrase) (Bacteriophage lambda) (UniProt P03700).
T1 sequence: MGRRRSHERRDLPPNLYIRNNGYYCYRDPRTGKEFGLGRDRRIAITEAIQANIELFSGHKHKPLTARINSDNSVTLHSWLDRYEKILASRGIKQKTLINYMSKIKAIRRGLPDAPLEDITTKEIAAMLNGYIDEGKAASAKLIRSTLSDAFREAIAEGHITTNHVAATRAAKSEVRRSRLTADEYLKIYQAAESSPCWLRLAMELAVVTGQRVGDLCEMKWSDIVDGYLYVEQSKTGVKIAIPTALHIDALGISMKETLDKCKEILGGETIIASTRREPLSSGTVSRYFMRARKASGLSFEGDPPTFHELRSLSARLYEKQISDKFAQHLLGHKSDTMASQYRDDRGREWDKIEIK
The note with it: attP x attP intermolecular, HeLa 48 h; attP x attB 0.81%.

As to “CTGCTTTTTTATACTAACTTG (double strand) [attB]”, the activity was 1.15 % GFP+ cells in data set [1] (attB x attB intermolecular) and 4.01 % GFP+ cells in data set [2] (attB x attB intermolecular).
Consider “TCTGTTACAGGTCACTAATACCATCTAAGTAGTTGATTCATAGTGACTGCATATGTTGTGTTTTACAGTATTATGTAGTCTGTTTTTTATGCAAAATCTAATTTAATATATTGATATTTATATCATTTTACGTTTCTCGTTCAGCTTTTTTATACTAAGTTGGCATTATAAAAAAGCATTGCTTATCAATTTGTTGCAACGAACAGGTCACTATCAGTCAAAATAAAATCATTATTTGATTTC (double strand) [attP]”, for which the activity in data set [3] was determined as 1.24 % GFP+ cells; in data set [1] (attP x attP intermolecular, attP x attB 9.90%) it was 8.07 % GFP+ cells; in data set [2] (attP x attP intermolecular, attP x attB 16.45%), 17.6 % GFP+ cells.
